Assay results taken from patent US8936785 (ESBATECH AN ALCON BIOMEDICAL RESEARCH UNIT, dated 2015).

B1: ESBA105 (scFv)
scFv: DIVMTQSPSSLSASVGDRVTLTCTASQSVSNDVVWYQQRPGKAPKLLIYSAFNRYTGVPSRFSGRGYGTDFTLTISSLQPEDVAVYYCQQDYNSPRTFGQGTKLEVKRGGGGSGGGGSGGGGSSGGGSQVQLVQSGAEVKKPGASVKVSCTASGYTFTHYGMNWVRQAPGKGLEWMGWINTYTGEPTYADKFKDRFTFSLETSASTVYMELTSLTSDDTAVYYCARERGDAMDYWGQGTLVTVSS
B2: ESBA105-QC15.2 (scFv)
scFv: DIVMTQSPSSLSASVGDRVTLTCTASQSVSNDVVWYQQRPGKAPKLLIYSAFNRYTGVPSRFSGRGYGTDFTLTISSLQPEDVAVYYCQQDYNSPRTFGQGTKLEVKRGGGGSGGGGSGGGGSSGGGSQVQLVQSGAEVKKPGASVKVSCTASGYTFTHYGMNWVRQAPGRGLEWMGWINTYTGEPTYADKFKDRITFSLETSASTVYMELTSLTSDDTAVYYCARERGDAMDYWGQGTLVTVSS
B3: ESBA105-H_F68A (scFv)
scFv: DIVMTQSPSSLSASVGDRVTLTCTASQSVSNDVVWYQQRPGKAPKLLIYSAFNRYTGVPSRFSGRGYGTDFTLTISSLQPEDVAVYYCQQDYNSPRTFGQGTKLEVKRGGGGSGGGGSGGGGSSGGGSQVQLVQSGAEVKKPGASVKVSCTASGYTFTHYGMNWVRQAPGKGLEWMGWINTYTGEPTYADKFKDRATFSLETSASTVYMELTSLTSDDTAVYYCARERGDAMDYWGQGTLVTVSS

What was measured:
[1] = target: T1, TNFα (tumour necrosis factor alpha) (UniProt P01375 77-233, limits assumed); experiment: cell-based or functional assay
T1 sequence (P01375 77-233 limits assumed): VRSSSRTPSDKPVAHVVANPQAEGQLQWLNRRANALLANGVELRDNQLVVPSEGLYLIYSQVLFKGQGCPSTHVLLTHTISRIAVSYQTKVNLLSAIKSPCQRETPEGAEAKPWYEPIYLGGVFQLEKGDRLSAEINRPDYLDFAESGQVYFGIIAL

[2] = target: T1, TNFα (tumour necrosis factor alpha); experiment: cell-based or functional assay; remark: listed apart in the source

| Binder | EC50 (read off the curve), L929 assay, ESBA105 stored 8 weeks at 37° C. (triangles, dashed line) [1] [ng/mL] | Relative potency: EC50X/EC50ESBA105, KYM-1 cells [2] [ratio EC50X/EC50ESBA105] | Relative potency: EC50X/EC50ESBA105, L929 cells [2] [ratio EC50X/EC50ESBA105] |
| --- | --- | --- | --- |
| B1 | ~10 | 1 | 1 |
| B2 |  | 1.5 | 1.37 |
| B3 |  |  | 1.14 |
